Assay results: US12286624B2, “Method for generating a gene editing vector with fixed guide RNA pairs” (Johann Wolfgang Goethe-Universität Frankfurt am Main, priority 2018, dated 2025)
Positions count from the first letter of the chain named.

B1: GFP2-NHT: 3Cs fixed-pair construct of one GFP-targeting gRNA and one NHT control gRNA (nucleic acid)
guide: GAAAGGACGAAACACCGTCAGGATCAGGGTGTATGGCGTTTTAGAGCTATGCTTTTTTAAAAAAGCATAGCTCTAAAACCGATGTTGTGGCGGATCTTGCGAGGTACCCAAGCG
B2: NHT-GFP2: 3Cs fixed-pair construct of one NHT control gRNA and one GFP-targeting gRNA (nucleic acid)
guide: GAAAGGACGAAACACCGGAAGGGCATCGACTTCAAGGGTTTTAGAGCTATGCTTTTTTAAAAAAGCATAGCTCTAAAACGCATGTTGTGGCGGATCTTGCGAGGTACCCAAGCG
B3: GFP2-GFP1: fixed-pair combination of two different GFP-targeting gRNAs (nucleic acid)
guide: B2 guide with G80C, C81G
modifications: expressed or natural sequence
notes: fixed-pair combination of two different GFP-targeting gRNAs
B4: Cdk2/Cdk2: fixed-pair gRNA construct with two gRNAs targeting Cdk2 (nucleic acid)
guide: GAAAGGACGAAACACCGACAGGTTGCCAGTAAAAACAGTTTAGAGACGCTCGTCTCTAAACCTCCCGTCAACTTGTTTCTGCGAGGTACCCAAGCG
modifications: expressed or natural sequence

How the values were obtained:
[1] = tested on: GFP-expressing hTERT-RPE1 cells; test: GFP depletion by FACS after lentiviral transduction with enhanced 3Cs fixed-pair gRNA constructs; type: cell-based, human; conditions: transduced 48 hours, then puromycin selection another 4 days
Experimental: (§1) GFP-expressing hTERT-RPE1 cells were transduced with them for 48 hours, after which a selection pressure (puromycin) for another 4 days was applied before the cells were analyzed by FACS and immunoblotting for which wildtype (wt) and GFP-positive cells (GFP) served as controls. […] In addition, GFP deletion efficiency was confirmed by immunoblotting of GFP, confirming the FACS finding (FIG. 15b). Fluorescent proteins expressed in human cells reflect an artificial situation, the inventors therefore asked if endogenously expressed genes in RPE1 cells would similarly be depleted more efficiently by two gRNAs. To address this question, RPE1 cells were transduced with fixed-pair gRNA constructs encoding for NHT/NHT, NHT/Cdk2, Cdk2/NHT, or Cdk2/Cdk2.
RPE1 cells were seeded at an appropriate density for each experiment with a maximal confluency of 60-70% in DMEM/F12 (Thermo Fisher Scientific), supplemented with 10% FBS and 1% penicillin-ptreptomycin (Sigma). At the day of transduction, polybrene was added to the media to a final concentration of 8 μg/mL, as well as viral supernatant according to the previously determined viral titer. The next morning, the media was replaced with fresh media and the cells were subjected to antibiotic selection or experimental analysis.
All samples were analyzed on a FACSCanto II flow cytometer (BD Biosciences), and data were processed by FlowJo software (FlowJo, LLC). Gating was carried out on the basis of viable and single cells that were identified on the basis of their scatter morphology.

Cdk2 = test: Depletion of endogenous Cdk2 by fixed-pair gRNA constructs (immunoblot); type: cell-based, human; conditions: RPE1 cells, compared with either single gRNA
Experimental: as §1
Preparation of lysates and immunoblot analyses were performed as described previously using Tris lysis buffer (50 mM Tris-HCl (pH 7.8), 150 mM NaCl, 1% IGEPAL CA-630) containing 20 mM NaF, 20 mM β-glycerophosphate, 0.3 mM Na-vanadate, 20 μg/ml RNase A, 20 μg/ml DNase and 1/300 protease inhibitor cocktail (Sigma-Aldrich, P8340) and phosphatase inhibitor cocktail #2 (Sigma-Aldrich, P5726). […] Protein levels were visualized with Pierce ECL Western Blotting Substrate on a BioRad ChemiDoc MP imaging system and analyzed with Bio-Rad Image Lab software (version 4.1 build 16).

Molecule	GFP-positive cells by FACS [1]	depletion of endogenous Cdk2 (Cdk2)
B1	strong reduction of GFP-positive cells	
B2	strong reduction of GFP-positive cells	
B3	below the detection limit	
B4		more efficiently depleted
